Test results published in patent publication US5679525.

Biological target: CBF1 (RBPJK), purified from HeLa (Homo sapiens) (UniProt Q06330)
Assay: competition

CBF1 (RBPJK), purified from HeLa (Homo sapiens), sequence (Q06330 other isoform, or with tags, fused parts or gaps): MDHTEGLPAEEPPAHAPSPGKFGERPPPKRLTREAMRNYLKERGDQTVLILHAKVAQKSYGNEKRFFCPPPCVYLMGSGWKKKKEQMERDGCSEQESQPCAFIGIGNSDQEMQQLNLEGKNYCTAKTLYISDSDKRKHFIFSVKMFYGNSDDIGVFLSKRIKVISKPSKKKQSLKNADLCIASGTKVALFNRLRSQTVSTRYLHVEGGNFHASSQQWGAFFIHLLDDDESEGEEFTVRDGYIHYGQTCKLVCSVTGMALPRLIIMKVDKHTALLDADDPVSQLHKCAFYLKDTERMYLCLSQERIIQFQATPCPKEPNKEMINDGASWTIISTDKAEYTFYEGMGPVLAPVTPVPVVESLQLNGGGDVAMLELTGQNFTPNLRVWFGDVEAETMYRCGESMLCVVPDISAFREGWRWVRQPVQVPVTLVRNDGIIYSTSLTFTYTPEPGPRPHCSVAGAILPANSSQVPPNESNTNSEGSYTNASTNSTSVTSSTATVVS

“AAGCATCGTGGATATTCCCGGCACAGCT (double strand) [ELAMp kB-1]” was tested, and the binding signal (% reduction at 10 pmol competitor) (0% at 0.1, 8% at 1.0 pmol) was 44.

“CAAGAGACAGAGTTTCTAAGCTTATTGTAATTTTAAGCATCG (double strand) [Unrelated]” gave a binding signal (% reduction at 10 pmol competitor) (0% at all amounts) of 0.

For “GATGCCATTGGGGATTTCCTCTTTACTG (double strand) [ELAM kB-3]”, the binding signal (% reduction at 10 pmol competitor) (0% at 0.1 and 1.0 pmol) was 14.

Sequence “GGAAACACGCCGTGGCTAAAAATTTGGG (double strand) [Cp-Mut]” has a binding signal (% reduction at 10 pmol competitor) (0% at 0.1 and 1.0 pmol, approx 250-fold weaker than Cp) of 19.

In the case of “GGAAACACGCCGTGGGAAAAAATTTGGC (double strand) [Cp (EBV C-promoter EBNA2 responsive element)]”, the binding signal (% reduction at 10 pmol competitor) (EMSA competition against Cp probe, 51% at 0.1, 90% at 1.0 pmol) was 98.

Sequence “GGACTACCACTGTGCCTTCCTCTGGAGG (double strand) [Heptamer-BamHI]” has a binding signal (% reduction at 10 pmol competitor) (0% at 0.1 and 1.0 pmol, additional 40-fold reduction versus Heptamer+BamHI) of 8.

“GGACTACCACTGTGGGATCCTCTGGAGG (double strand) [Heptamer+BamHI]” gave a binding signal (% reduction at 10 pmol competitor) (0% at 0.1, 31% at 1.0 pmol, approx 16-fold weaker than Cp) of 75.

With “TATATGCCCGGGAAAGTTTTTGTATTCC (double strand) [ELAMp kB-2]” the binding signal (% reduction at 10 pmol competitor) (2% at 0.1, 27% at 1.0 pmol) was 51.

In the case of “TCCTTCAGCCCTGTGGGAACTTGCTGCT (double strand) [CD23p]”, the binding signal (% reduction at 10 pmol competitor) (22% at 0.1, 70% at 1.0 pmol, approx 2.5-fold weaker than Cp) was 91.
